Drawing on publication PMC5923425, “Structural analysis of human ARS2 as a platform for co-transcriptional RNA sorting” (Nature Communications, 2018), this text covers binding result and Kd for 2 molecules.

Settings in all cases: both partners purified
Assay [1] addresses T1, ARS2^147–871 (human, UniProt Q9BXP5-4 147-871).
T1 construct: human ARS2 (SRRT) isoform-e, 871 residues, residues 147-871, cloned into pETM11; also called hARS2; SRRT; source: E. coli Rosetta 2, purified (Ni-Sepharose, TEV cleavage, HiTrap Q, heparin if necessary, SEC); not shown: His6, N-terminal, cleaved
T1 sequence (looked up): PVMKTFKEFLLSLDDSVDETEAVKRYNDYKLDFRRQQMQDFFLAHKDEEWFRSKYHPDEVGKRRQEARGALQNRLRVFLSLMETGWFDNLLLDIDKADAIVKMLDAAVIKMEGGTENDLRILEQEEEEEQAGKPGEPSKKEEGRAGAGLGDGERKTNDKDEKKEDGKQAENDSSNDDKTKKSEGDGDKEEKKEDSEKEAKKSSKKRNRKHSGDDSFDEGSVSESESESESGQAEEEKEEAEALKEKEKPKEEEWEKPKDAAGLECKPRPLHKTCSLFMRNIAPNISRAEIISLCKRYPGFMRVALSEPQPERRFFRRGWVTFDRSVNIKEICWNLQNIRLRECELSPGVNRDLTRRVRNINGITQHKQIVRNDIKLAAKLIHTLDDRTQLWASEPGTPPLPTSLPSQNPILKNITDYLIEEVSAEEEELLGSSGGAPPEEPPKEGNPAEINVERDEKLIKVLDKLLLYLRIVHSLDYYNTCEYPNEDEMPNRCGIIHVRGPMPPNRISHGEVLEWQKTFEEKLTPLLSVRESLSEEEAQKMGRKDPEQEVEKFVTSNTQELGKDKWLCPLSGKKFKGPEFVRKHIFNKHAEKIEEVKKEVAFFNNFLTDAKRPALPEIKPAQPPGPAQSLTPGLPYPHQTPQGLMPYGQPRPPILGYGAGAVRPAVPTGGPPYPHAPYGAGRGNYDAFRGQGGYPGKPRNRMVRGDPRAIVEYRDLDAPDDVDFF
Nature of the assay: pull-down; GST–FLASH 903–943 (or GST as control) immobilised on glutathione sepharose, incubated with purified ARS2 constructs 30 min at 10 °C; flow-through, wash and elution on Coomassie-stained SDS-PAGE.

Assay [2] has as its target T2, ARS2^171–270+408–763 (human, UniProt Q9BXP5-4 171-270; Q9BXP5-4 408-763).
T2 construct: human ARS2 (SRRT) isoform-e, residues 171-270, cloned into pETM11; human ARS2 (SRRT) isoform-e, residues 408-763, cloned for co-expression into pDUET and pET15b; Two co-expressed fragments of one protein that fold into one core; also called crystallised core; source: E. coli Rosetta 2, two fragments co-expressed, purified; not shown: His6, N-terminal, cleaved
T2 sequence (looked up) 1: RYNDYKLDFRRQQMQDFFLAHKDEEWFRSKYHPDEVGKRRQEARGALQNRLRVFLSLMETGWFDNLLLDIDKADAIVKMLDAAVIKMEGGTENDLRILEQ
T2 sequence (looked up) 2: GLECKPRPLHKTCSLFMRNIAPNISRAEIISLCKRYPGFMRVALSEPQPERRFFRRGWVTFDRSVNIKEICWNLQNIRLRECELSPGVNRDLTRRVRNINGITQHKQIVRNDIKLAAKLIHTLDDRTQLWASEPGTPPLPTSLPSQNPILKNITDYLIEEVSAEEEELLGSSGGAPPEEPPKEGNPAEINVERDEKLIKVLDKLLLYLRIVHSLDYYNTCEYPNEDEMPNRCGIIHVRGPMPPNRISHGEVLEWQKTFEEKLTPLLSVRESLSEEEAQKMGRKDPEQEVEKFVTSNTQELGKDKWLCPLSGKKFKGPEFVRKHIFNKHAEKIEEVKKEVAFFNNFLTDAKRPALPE
Nature of the assay: ITC; MicroCal ITC200, 25 °C, ARS2 constructs with FLASH peptides; high salt (HS): buffer containing 250 mM NaCl; single-site fit; which partner was injected is not told. (In ITC the heat of successive injections is recorded.)

Assay [3] has as its target T1, ARS2^147–871. The assay is described as above.
Assay [4] deals with T3, ARS2^147–270+494–763 (human, UniProt Q9BXP5-4 147-270; Q9BXP5-4 494-763).
T3 construct: human ARS2 (SRRT) isoform-e, residues 147-270, cloned into pETM11; human ARS2 (SRRT) isoform-e, residues 494-763 (lacks the RRM domain), cloned for co-expression into pDUET and pET15b; Lacks the unstructured regions and the RRM domain; source: E. coli Rosetta 2, two fragments co-expressed, purified; not shown: His6, N-terminal, cleaved
T3 sequence (looked up) 1: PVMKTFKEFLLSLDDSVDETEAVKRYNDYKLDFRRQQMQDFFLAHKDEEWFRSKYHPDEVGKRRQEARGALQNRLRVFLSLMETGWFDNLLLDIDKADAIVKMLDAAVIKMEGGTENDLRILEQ
T3 sequence (looked up) 2: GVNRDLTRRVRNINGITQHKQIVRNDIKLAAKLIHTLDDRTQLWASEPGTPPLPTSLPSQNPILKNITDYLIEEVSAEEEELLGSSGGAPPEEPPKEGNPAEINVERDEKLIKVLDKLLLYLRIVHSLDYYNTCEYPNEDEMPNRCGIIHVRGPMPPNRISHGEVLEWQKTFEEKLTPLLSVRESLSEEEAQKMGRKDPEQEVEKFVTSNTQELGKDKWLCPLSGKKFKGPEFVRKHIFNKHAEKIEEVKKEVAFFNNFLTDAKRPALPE
Nature of the assay: ITC; MicroCal ITC200, 25 °C, ARS2 construct with FARB; not marked high salt: 20 mM HEPES, 120 mM, 2 mM TCEP pH 7.8; single-site fit.

B1: GST–FLASH^903–943 (domain or fragment, UniProt Q9UKL3 903-943, looked up)
chain: SDLNKENQKPIYKSDKCTEADTCKNSPLDELEEGEIRSDSE
notes: FLASH (FLICE-associated huge protein), residues 903-943, holds FARB; cloned into the GST-vector pETM30; source: E. coli, expressed and purified; immobilised on glutathione sepharose
As to B1, the binding result in assay [1] is “binds”.

B2: FARB (FLASH–ARS2-binding region) peptide of FLASH, residues 931–943 (peptide)
peptide: DELEEGEIRSDSE
notes: FLASH (FLICE-associated huge protein), residues 931-943; also called FLASH^931–943; source: synthetic peptide, bought: GeneScript
One may read the Kd as a measure of binding affinity in units of concentration. B2: the Kd in assay [2] came out at 3.8 µM; in assay [3], 5.1 µM; in assay [4], 0.5 µM.
